Experimental data published in article PMC11243334, “Synthesis and Evaluation of the First ^68Ga-Labeled C-Terminal Hydroxamate-Derived Gastrin-Releasing Peptide Receptor-Targeted Tracers for Cancer Imaging with Positron Emission Tomography” (Molecules, 2024).
Read-outs that look alike come from different tables or passages of the source.

Experiments:
[1] = test system: PC-3 tumor xenografts; experiment: PET/CT imaging in mice bearing PC-3 tumor xenografts; format: in vivo; conditions: 1 h post injection, mice
Procedure: (§1) Imaging and biodistribution studies were performed on male NOD.Cg-Rag1^tm1Mom Il2rg^tm1Wjl/SzJ (NRG) mice following previously published procedures. The experiments were conducted following the guidelines established by the Canadian Council on Animal Care and approved by Animal Ethics Committee of the University of British Columbia. The mice were sedated (2.5% isoflurane in oxygen) and injected with 5 × 10^6 PC-3 cells (100 µL; 1:1 PBS/Matrigel) subcutaneously behind the left shoulder. The tumor-bearing mice were used for PET/CT imaging and biodistribution studies when the tumor grew to 5–8 mm in diameter.
PET/CT imaging experiments were performed on a Siemens (Knoxville, TN, USA) Inveon micro PET/CT scanner. Each tumor-bearing mouse was injected with ~3–6 MBq of ^68Ga-labeled tracer through a lateral caudal tail vein under anaesthesia. At around 50 min post injection, a 10 min CT scan was obtained first for localization and attenuation correction after segmentation for reconstructing the PET image, followed by a 10 min static PET scan.

[2] = Ex vivo biodistribution in PC-3 tumor-bearing mice; conditions: male, mouse, iv, total radioactivity, mean ± SD, n = 4; for tissue uptake at 1 h: NOD.Cg-Rag1^tm1Mom Il2rg^tm1Wjl/SzJ (NRG); for tissue to tissue ratio at 1 h: NOD.Cg-Rag1tm1Mom Il2rgtm1Wjl/SzJ (NRG)
Procedure: Biodistribution studies were conducted for ^68Ga-labeled SB3, LW02075 and LW02050 in PC-3 tumor-bearing mice (n = 4).
as §1
For biodistribution studies, the mice were injected with the radiotracer (~2–4 MBq), as described above. Blocking of [^68Ga]Ga-LW02075 and [^68Ga]Ga-LW02050 was conducted by co-injection with 100 μg nonradioactive Ga-LW02075 and Ga-LW02050, respectively, through a lateral caudal tail vein under anaesthesia. At 1 h post injection, the mice were sedated and euthanized by CO2 inhalation. Blood was collected via cardiac puncture, and organs/tissues of interest were collected, weighed, and counted on a Perkin Elmer (Waltham, MA, USA) Wizard2 2480 automatic gamma counter.

[3] = physchem; conditions: n-octanol/DPBS, pH 7.4
Procedure: LogD7.4 values of [^68Ga]Ga-LW02075, [^68Ga]Ga-LW02050, and [^68Ga]Ga-SB3 were measured via the shake flask method. An aliquot of the ^68Ga-labeled tracer (~1.85 MBq) was added to a 15 mL falcon tube containing 3 mL of n-octanol and 3 mL of DPBS (pH 7.4) followed by 1 min of vortex (n = 3). After that, the mixture was centrifuged at 5000 rpm for 10 min, and samples of the n-octanol (1 mL) and buffer (1 mL) layers were collected and counted on a Perkin Elmer (Waltham, MA, USA) Wizard2 2480 automatic gamma counter. The LogD7.4 values of [^68Ga]Ga-LW02075, [^68Ga]Ga-LW02050, and [^68Ga]Ga-SB3 were calculated following the equation: LogD7.4 = log10[(counts in the n-octanol phase)/(counts in the buffer phase)].

## CC(C)C[C@H](NC(=O)[C@H](Cc1c[nH]cn1)NC(=O)CNC(=O)[C@@H](NC(=O)[C@H](C)NC(=O)[C@H](Cc1c[nH]c2ccccc12)NC(=O)[C@H](CCC(N)=O)NC(=O)[C@@H](Cc1ccccc1)NC(=O)COCC(=O)Nc1ccc(CNC(=O)CN2CCN(CC(=O)O)CCN(CC(=O)O)CCN(CC(=O)O)CC2)cc1)C(C)C)C(=O)NO [[^68Ga]Ga-LW02075, [^68Ga]Ga-DOTA-pABzA-DIG-D-Phe-Gln-Trp-Ala-Val-Gly-His-Leu-NHOH, metal not drawn]
[1]
  Excretion pathway in PET images: excreted primarily through the renal pathway
  Pancreas in PET images: high pancreas uptake
[2]; PC-3 tumor, 1 h blocked: co-injected with 100 µg nonradioactive Ga-complexed standard, read-out: PC-3 tumor uptake, blocked
  tissue uptake at 1 h: 1.83 ± 0.22 %ID/g
[2]; PC-3 tumor, 1 h post injection, read-out: PC-3 tumor uptake
  tissue uptake at 1 h: 3.97 ± 1.71 %ID/g
[2]; adrenal glands, 1 h blocked: co-injected with 100 µg nonradioactive Ga-complexed standard, read-out: Adrenal glands uptake, blocked
  tissue uptake at 1 h: 1.02 ± 0.59 %ID/g
[2]; adrenal glands, 1 h post injection, read-out: Adrenal glands uptake
  tissue uptake at 1 h: 4.42 ± 2.41 %ID/g
[2]; blood, 1 h blocked: co-injected with 100 µg nonradioactive Ga-complexed standard, read-out: Blood uptake, blocked
  tissue uptake at 1 h: 1.15 ± 0.26 %ID/g
[2]; blood, 1 h post injection, read-out: Blood uptake
  tissue uptake at 1 h: 0.76 ± 0.41 %ID/g
[2]; bone, 1 h blocked: co-injected with 100 µg nonradioactive Ga-complexed standard, read-out: Bone uptake, blocked
  tissue uptake at 1 h: 0.21 ± 0.07 %ID/g
[2]; bone, 1 h post injection, read-out: Bone uptake
  tissue uptake at 1 h: 0.2 ± 0.2 %ID/g
[2]; brain, 1 h blocked: co-injected with 100 µg nonradioactive Ga-complexed standard, read-out: Brain uptake, blocked
  tissue uptake at 1 h: 0.03 ± 0.01 %ID/g
[2]; brain, 1 h post injection, read-out: Brain uptake
  tissue uptake at 1 h: 0.03 ± 0.01 %ID/g
[2]; fat, 1 h blocked: co-injected with 100 µg nonradioactive Ga-complexed standard, read-out: Fat uptake, blocked
  tissue uptake at 1 h: 0.12 ± 0.02 %ID/g
[2]; fat, 1 h post injection, read-out: Fat uptake
  tissue uptake at 1 h: 0.08 ± 0.05 %ID/g
[2]; heart, 1 h blocked: co-injected with 100 µg nonradioactive Ga-complexed standard, read-out: Heart uptake, blocked
  tissue uptake at 1 h: 0.34 ± 0.04 %ID/g
[2]; heart, 1 h post injection, read-out: Heart uptake
  tissue uptake at 1 h: 0.24 ± 0.13 %ID/g
[2]; kidneys, 1 h blocked: co-injected with 100 µg nonradioactive Ga-complexed standard, read-out: Kidneys uptake, blocked
  tissue uptake at 1 h: 4.98 ± 1.59 %ID/g
[2]; kidneys, 1 h post injection, read-out: Kidneys uptake
  tissue uptake at 1 h: 3.11 ± 1.18 %ID/g
[2]; large intestine, 1 h blocked: co-injected with 100 µg nonradioactive Ga-complexed standard, read-out: Large intestine uptake, blocked
  tissue uptake at 1 h: 0.4 ± 0.17 %ID/g
[2]; large intestine, 1 h post injection, read-out: Large intestine uptake
  tissue uptake at 1 h: 1.71 ± 0.47 %ID/g
[2]; liver, 1 h blocked: co-injected with 100 µg nonradioactive Ga-complexed standard, read-out: Liver uptake, blocked
  tissue uptake at 1 h: 5.92 ± 1.69 %ID/g
[2]; liver, 1 h post injection, read-out: Liver uptake
  tissue uptake at 1 h: 4.14 ± 1.5 %ID/g
[2]; lungs, 1 h blocked: co-injected with 100 µg nonradioactive Ga-complexed standard, read-out: Lungs uptake, blocked
  tissue uptake at 1 h: 0.94 ± 0.17 %ID/g
[2]; lungs, 1 h post injection, read-out: Lungs uptake
  tissue uptake at 1 h: 0.75 ± 0.41 %ID/g
[2]; muscle, 1 h blocked: co-injected with 100 µg nonradioactive Ga-complexed standard, read-out: Muscle uptake, blocked
  tissue uptake at 1 h: 0.27 ± 0.14 %ID/g
[2]; muscle, 1 h post injection, read-out: Muscle uptake
  tissue uptake at 1 h: 0.21 ± 0.18 %ID/g
[2]; pancreas, 1 h blocked: co-injected with 100 µg nonradioactive Ga-complexed standard, read-out: Pancreas uptake, blocked
  tissue uptake at 1 h: 1.55 ± 0.83 %ID/g
[2]; pancreas, 1 h post injection, read-out: Pancreas uptake
  tissue uptake at 1 h: 17.8 ± 5.24 %ID/g
[2]; small intestine, 1 h blocked: co-injected with 100 µg nonradioactive Ga-complexed standard, read-out: Small intestine uptake, blocked
  tissue uptake at 1 h: 5.62 ± 1.86 %ID/g
[2]; small intestine, 1 h post injection, read-out: Small intestine uptake
  tissue uptake at 1 h: 6.72 ± 1.94 %ID/g
[2]; spleen, 1 h blocked: co-injected with 100 µg nonradioactive Ga-complexed standard, read-out: Spleen uptake, blocked
  tissue uptake at 1 h: 0.35 ± 0.12 %ID/g
[2]; spleen, 1 h post injection, read-out: Spleen uptake
  tissue uptake at 1 h: 0.26 ± 0.13 %ID/g
[2]; stomach, 1 h blocked: co-injected with 100 µg nonradioactive Ga-complexed standard, read-out: Stomach uptake, blocked
  tissue uptake at 1 h: 0.73 ± 0.29 %ID/g
[2]; stomach, 1 h post injection, read-out: Stomach uptake
  tissue uptake at 1 h: 1.23 ± 0.22 %ID/g
[2]; testes, 1 h blocked: co-injected with 100 µg nonradioactive Ga-complexed standard, read-out: Testes uptake, blocked
  tissue uptake at 1 h: 0.3 ± 0.06 %ID/g
[2]; testes, 1 h post injection, read-out: Testes uptake
  tissue uptake at 1 h: 0.17 ± 0.1 %ID/g
[2]; tumor and bone, 1 h blocked: co-injected with 100 µg nonradioactive Ga-complexed standard, read-out: Tumor/bone uptake ratio, blocked
  tissue to tissue ratio at 1 h: 9.3 ± 2.39
[2]; tumor and bone, 1 h post injection, read-out: Tumor/bone uptake ratio
  tissue to tissue ratio at 1 h: 30.6 ± 18.9
[2]; tumor and kidney, 1 h blocked: co-injected with 100 µg nonradioactive Ga-complexed standard, read-out: Tumor/kidney uptake ratio, blocked
  tissue to tissue ratio at 1 h: 0.39 ± 0.09
[2]; tumor and kidney, 1 h post injection, read-out: Tumor/kidney uptake ratio
  tissue to tissue ratio at 1 h: 1.28 ± 0.33
[2]; tumor and muscle, 1 h blocked: co-injected with 100 µg nonradioactive Ga-complexed standard, read-out: Tumor/muscle uptake ratio, blocked
  tissue to tissue ratio at 1 h: 7.85 ± 3.13
[2]; tumor and muscle, 1 h post injection, read-out: Tumor/muscle uptake ratio
  tissue to tissue ratio at 1 h: 24.8 ± 9.99
[2]; tumor and pancreas, 1 h blocked: co-injected with 100 µg nonradioactive Ga-complexed standard, read-out: Tumor/pancreas uptake ratio, blocked
  tissue to tissue ratio at 1 h: 1.46 ± 0.76
[2]; tumor and pancreas, 1 h post injection, read-out: Tumor/pancreas uptake ratio
  tissue to tissue ratio at 1 h: 0.22 ± 0.05
[2]; tumor and whole blood, 1 h blocked: co-injected with 100 µg nonradioactive Ga-complexed standard, read-out: Tumor/blood uptake ratio, blocked
  tissue to tissue ratio at 1 h: 1.65 ± 0.4
[2]; tumor and whole blood, 1 h post injection, read-out: Tumor/blood uptake ratio
  tissue to tissue ratio at 1 h: 5.51 ± 1.49
[3]
  logD: -2.09 ± 0.05
